Measured values as given in PMC8853325.

How the values were obtained:
[1] = substrate: CC(=O)N[C@H]1[C@@H](OP(=O)(O)OP(=O)(O)OCCCCCCCCCCCOc2ccccc2)O[C@H](CO)[C@@H](O)[C@@H]1O[C@H]1O[C@H](C)[C@@H](O)[C@H](O)[C@@H]1O; assay: cells, lysate or membranes; conditions: donor GDP-D-[^3H]Rha, 5 mM MnCl2, Tris pH 9, 37 °C
[2] = substrate: C[C@H]1O[C@H](OCc2ccccc2)[C@@H](O)[C@@H](O)[C@@H]1O; assay: cells, lysate or membranes; conditions: donor GDP-D-[^3H]Rha, 5 mM MnCl2, Tris pH 9, 37 °C

B1: His6-WbpX (Pseudomonas aeruginosa) (protein)
chain: MTRLLVECTYVFEHPKVNSGIQRVVRNVIRELPEADETVECIPVAMLDGTLYQVHSLAPLDPRPHSPLVRLRILVERAANYFWLGQRTLEKRRPFRSSPWARRLLYVACRLFAFAFLSIPLRLLDRILGKQQPAPVRATPLEHRAGDQLVLLDSSWHADFFPLAERLKSEGVGIVSVIYDLIPLTHPQFCDAGLVKVFNHWFDWIAATADGYVAISETIRDEVRAEMLRRIGPEKVAQRWFDYFHLGSELDLVEDGASVEPDLLRMFKAKAPVFLMVSTIEPRKNHGYLLDAFERAWAQGSQARLCIAGRIGWKCEALVERVRQHPELNKRLFMFNDLSDKSLEYAYSHAASLVFPSYVEGFGLPLVEAMQRGLPAMGSDIPVFREIGGEFMAYFDLADPQTLANLVTRFEATGEFPAERPVGEWRWIGWHEASRQLIARILLALGKAPAHGEAVHADCG
B1 showed a Km [1] of 220 µM and a Km [2] of 21 µM.
